Measured values published in publication PMC11564776, “Enzyme stabilisation due to incorporation of a fluorinated non-natural amino acid at the protein surface” (Scientific Reports, 2024).

Molecular target: the molecule itself
Test: SEC; Zorbax-GF250 column, 1 mL/min, 200 mM sodium phosphate pH 7.0, column at room temperature; holo-TK samples stored at 4 °C or heated 15 min at 21 °C or 50 °C; homodimer and monomer peaks combined as 'native' because dilution during SEC can cause partial dissociation to monomer

B1: wild-type E. coli transketolase (enzyme)
chain: SSRKELANAIRALSMDAVQKAKSGHPGAPMGMADIAEVLWRDFLKHNPQNPSWADRDRFVLSNGHGSMLIYSLLHLTGYDLPMEELKNFRQLHSKTPGHPEVGYTAGVETTTGPLGQGIANAVGMAIAEKTLAAQFNRPGHDIVDHYTYAFMGDGCMMEGISHEVCSLAGTLKLGKLIAFYDDNGISIDGHVEGWFTDDTAMRFEAYGWHVIRDIDGHDAASIKRAVEEARAVTDKPSLLMCKTIIGFGSPNKAGTHDSHGAPLGDAEIALTREQLGWKYAPFEIPSEIYAQWDAKEAGQAKESAWNEKFAAYAKAYPQEAAEFTRRMKGEMPSDFDAKAKEFIAKLQANPAKIASRKASQNAIEAFGPLLPEFLGGSADLAPSNLTLWSGSKAINEDAAGNYIHYGVREFGMTAIANGISLHGGFLPYTSTFLMFVEYARNAVRMAALMKQRQVMVYTHDSIGLGEDGPTHQPVEQVASLRVTPNMSTWRPCDQVESAVAWKYGVERQDGPTALILSRQNLAQQERTEEQLANIARGGYVLKDCAGQPELIFIATGSEVELAVAAYEKLTAEGVKARVVSMPSTDAFDKQDAAYRESVLPKAVTARVAVEAGIADYWYKYVGLNGAIVGMTTFGESAPAELLFEEFGFTVDNVVAKAKELL
notes: transketolase (TK) of E. coli, wild-type gene in plasmid pQR791; the introduction gives the domains as residues 1-322 (PP), 323-539 (Pyr) and 540-663 (C-terminal); Used as holo-TK with ThDP and MgCl2; also called WT TK; WT-TK; source: E. coli XL-10-Gold with plasmid pQR791, purified (Ni-NTA)
  binding result: binds
